Experimental data: patent publication US20240261333A1, “NOVEL TARGETS FOR ENHANCING ANTI-TUMOR IMMUNITY” (THE BROAD INSTITUTE, INC., priority 2021, published 2024)

Target: T1, B3GNT2 (Homo sapiens, UniProt Q9NY97)
T1 construct: The respective ORFs of candidate genes [CD274 (NM_014143), MCL1 (NM_021960), JUNB (NM_002229), and B3GNT2 (NM_006577)] were synthesized; expressed in transfected cells; host or cells: A375 melanoma cells (lentiviral ORF overexpression)
T1 sequence (Q9NY97 1-397): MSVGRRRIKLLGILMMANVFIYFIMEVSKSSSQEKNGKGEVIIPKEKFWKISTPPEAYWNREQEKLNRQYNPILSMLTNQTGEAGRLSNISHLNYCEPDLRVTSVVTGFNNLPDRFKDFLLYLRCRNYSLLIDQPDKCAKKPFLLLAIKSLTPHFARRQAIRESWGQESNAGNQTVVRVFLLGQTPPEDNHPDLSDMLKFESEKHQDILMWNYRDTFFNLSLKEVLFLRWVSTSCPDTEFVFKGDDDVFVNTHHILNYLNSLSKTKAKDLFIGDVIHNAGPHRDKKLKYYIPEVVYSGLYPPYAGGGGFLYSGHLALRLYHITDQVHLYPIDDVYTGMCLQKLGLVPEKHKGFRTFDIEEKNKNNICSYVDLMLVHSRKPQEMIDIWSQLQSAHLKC
Experiment: Co-IP of FLAG-tagged B3GNT2 followed by mass spectrometry
Type: cell-based
Parameters: C-term IgG / C-term flag: unit not given here
In short: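 FLAG-tagged B3GNT2 immunoprecipitated from cell lysate (HEPES, 1% Triton X-100, 150 mM NaCl) with anti-FLAG versus […], overnight at 4° C, then captured on Protein A/G magnetic beads for 4 h. Two biological replicates per condition. Peptides fractionated and analyzed by nano-LC on an Orbitrap Elite in data-dependent mode.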

[1] = Co-IP followed by mass spectrometry of B3GNT2, C-term tag, FLAG pull-down
[2] = Co-IP followed by mass spectrometry of B3GNT2, C-term tag, IgG pull-down
[3] = Co-IP followed by mass spectrometry of B3GNT2, N-term tag, FLAG pull-down
[4] = Co-IP followed by mass spectrometry of B3GNT2, N-term tag, IgG pull-down

Row | Molecule | C-term flag [1] | C-term IgG [2] | N-term FLAG [3] | N-term IgG [4] | C-term flag (Co-IP with FLAG antibody, C-terminally FLAG-tagged B3GNT2, mass spectrometry count, unit not given) | N-term FLAG (Co-IP with FLAG antibody, N-terminally FLAG-tagged B3GNT2, mass spectrometry count, unit not given) | C-term IgG (Co-IP with IgG control antibody, C-terminally FLAG-tagged B3GNT2, mass spectrometry count, unit not given) | N-term IgG (Co-IP with IgG control antibody, N-terminally FLAG-tagged B3GNT2, mass spectrometry count, unit not given)
1 | KRT6B (protein) ASTSTTIRSHSSSRRGFSANSARLPGVSRSGFSSISVSRSRGSGGLGGACGGAGFGSRSLYGLGGSKRISIGGGSCAISGGYGSRAGGSYGFGGAGSGFGFGGGAGIGFGLGGGAGLAGGFGGPGFPVCPPGGIQEVTVNQSLLTPLNLQIDPAIQRVRAEEREQIKTLNNKFASFIDKVRFLEQQNKVLDTKWTLLQEQGTKTVRQNLEPLFEQYINNLRRQLDNIVGERGRLDSELRNMQDLVEDLKNKYEDEINKRTAAENEFVTLKKDVDAAYMNKVELQAKADTLTDEINFLRALYDAELSQMQTHISDTSVVLSMDNNRNLDLDSIIAEVKAQYEEIAQRSRAEAESWYQTKYEELQITAGRHGDDLRNTKQEIAEINRMIQRLRSEIDHVKKQCANLQAAIADAEQRGEMALKDAKNKLEGLEDALQKAKQDLARLLKEYQELMNVKLALDVEIATYRKLLEGEECRLNGEGVGQVNISVVQSTVSSGYGGASGVGSGLGLGGGSSYSYGSGLGVGGGFSSSSGRATGGGLSSVGGGSSTIKYTTTSSSSRKSYKH | 331 | 295 | 370 | 316 | – | – | – | –
2 | C1orf68 (protein) MCDQQKQPQFPPSCVKGSGLGAGQGSNGASVKCPVPCQTQTVCVTGPAPCPTQTYVKYQVPCQTQTYVKCPAPCQRTYVKYPTPCQTYVKCPAPCQTTYVKCPTPCQTYVKCPAPCQMTYIKSPAPCQTQTCYVQGASPCQSYYVQAPASGSTSQYCVTDPCSAPCSTSYCCLAPRTFGVSPLRRWIQRPQNCNTGSSGCCENSGSSGCCGSGGCGCSCGCGSSGCCCLGIIPMRSRGPACCDHEDDCCC | 2 | 4 | 13 | 0 | – | – | – | –
3 | SLC25A6 (protein) MTEQAISFAKDFLAGGIAAAISKTAVAPIERVKLLLQVQHASKQIAADKQYKGIVDCIVRIPKEQGVLSFWRGNLANVIRYFPTQALNFAFKDKYKQIFLGGVDKHTQFWRYFAGNLASGGAAGATSLCFVYPLDFARTRLAADVGKSGTEREFRGLGDCLVKITKSDGIRGLYQGFSVSVQGIIIYRAAYFGVYDTAKGMLPDPKNTHIVVSWMIAQTVTAVAGVVSYPFDTVRRRMMMQSGRKGADIMYTGTVDCWRKIFRDEGGKAFFKGAWSNVLRGMGGAFVLVLYDELKKVI | – | – | – | – | 19 | 15 | 0 | 0
4 | CAT (protein) ADSRDPASDQMQHWKEQRAAQKADVLTTGAGNPVGDKLNVITVGPRGPLLVQDVVFTDEMAHFDRERIPERVVHAKGAGAFGYFEVTHDITKYSKAKVFEHIGKKTPIAVRFSTVAGESGSADTVRDPRGFAVKFYTEDGNWDLVGNNTPIFFIRDPILFPSFIHSQKRNPQTHLKDPDMVWDFWSLRPESLHQVSFLFSDRGIPDGHRHMNGYGSHTFKLVNANGEAVYCKFHYKTDQGIKNLSVEDAARLSQEDPDYGIRDLFNAIATGKYPSWTFYIQVMTFNQAETFPFNPFDLTKVWPHKDYPLIPVGKLVLNRNPVNYFAEVEQIAFDPSNMPPGIEASPDKMLQGRLFAYPDTHRHRLGPNYLHIPVNCPYRARVANYQRDGPMCMQDNQGGAPNYYPNSFGAPEQQPSALEHSIQYSGEVRRFNTANDDNVTQVRAFYVNVLNEEQRKRLCENIAGHLKDAQIFIQKKAVKNFTEVHPDYGSHIQALLDKYNAEKPKNAIHTFVQSGSHLAAREKANL | 0 | 3 | 6 | 2 | – | – | – | –
5 | ATXN2 (protein) MRSAAAAPRSPAVATESRRFAAARWPGWRSLQRPARRSGRGGGGAAPGPYPSAAPPPPGPGPPPSRQSSPPSASDCFGSNGNGGGAFRPGSRRLLGLGGPPRPFVVLLLPLASPGAPPAAPTRASPLGARASPPRSGVSLARPAPGCPRPACEPVYGPLTMSLKPQQQQQQQQQQQQQQQQQQQQQQQPPPAAANVRKPGGSGLLASPAAAPSPSSSSVSSSSATAPSSVVAATSGGGRPGLGRGRNSNKGLPQSTISFDGIYANMRMVHILTSVVGSKCEVQVKNGGIYEGVFKTYSPKCDLVLDAAHEKSTESSSGPKREEIMESILFKCSDFVVVQFKDMDSSYAKRDAFTDSAISAKVNGEHKEKDLEPWDAGELTANEELEALENDVSNGWDPNDMFRYNEENYGVVSTYDSSLSSYTVPLERDNSEEFLKREARANQLAEEIESSAQYKARVALENDDRSEEEKYTAVQRNSSEREGHSINTRENKYIPPGQRNREVISWGSGRQNSPRMGQPGSGSMPSRSTSHTSDFNPNSGSDQRVVNGGVPWPSPCPSPSSRPPSRYQSGPNSLPPRAATPTRPPSRPPSRPSRPPSHPSAHGSPAPVSTMPKRMSSEGPPRMSPKAQRHPRNHRVSAGRGSISSGLEFVSHNPPSEAATPPVARTSPSGGTWSSVVSGVPRLSPKTHRPRSPRQNSIGNTPSGPVLASPQAGIIPTEAVAMPIPAASPTPASPASNRAVTPSSEAKDSRLQDQRQNSPAGNKENIKPNETSPSFSKAENKGISPVVSEHRKQIDDLKKFKNDFRLQPSSTSESMDQLLNKNREGEKSRDLIKDKIEPSAKDSFIENSSSNCTSGSSKPNSPSISPSILSNTEHKRGPEVTSQGVQTSSPACKQEKDDKEEKKDAAEQVRKSTLNPNAKEFNPRSFSQPKPSTTPTSPRPQAQPSPSMVGHQQPTPVYTQPVCFAPNMMYPVPVSPGVQPLYPIPMTPMPVNQAKTYRAVPNMPQQRQDQHHQSAMMHPASAAGPPIAATPPAYSTQYVAYSPQQFPNQPLVQHVPHYQSQHPHVYSPVIQGNARMMAPPTHAQPGLVSSSATQYGAHEQTHAMYACPKLPYNKETSPSFYFAISTGSLAQQYAHPNATLHPHTPHPQPSATPTGQQQSQHGGSHPAPSPVQHHQHQAAQALHLASPQQQSAIYHAGLAPTPPSMTPASNTQSPQNSFPAAQQTVFTIHPSHVQPAYTNPPHMAHVPQAHVQSGMVPSHPTAHAPMMLMTTQPPGGPQAALAQSALQPIPVSTTAHFPYMTHPSVQAHHQQQL | 3 | 3 | 4 | 3 | – | – | – | –
6 | RBM14 (protein) MKIFVGNVDGADTTPEELAALFAPYGTVMSCAVMKQFAFVHMRENAGALRAIEALHGHELRPGRALVVEMSRPRPLNTWKIFVGNVSAACTSQELRSLFERRGRVIECDVVKDYAFVHMEKEADAKAAIAQLNGKEVKGKRINVELSTKGQKKGPGLAVQSGDKTKKPGAGDTAFPGTGGFSATFDYQQAFGNSTGGFDGQARQPTPPFFGRDRSPLRRSPPRASYVAPLTAQPATYRAQPSVSLGAAYRAQPSASLGVGYRTQPMTAQAASYRAQPSVSLGAPYRGQLASPSSQSAAASSLGPYGGAQPSASALSSYGGQAAAASSLNSYGAQGSSLASYGNQPSSYGAQAASSYGVRAAASSYNTQGAASSLGSYGAQAASYGAQSAASSLAYGAQAASYNAQPSASYNAQSAPYAAQQAASYSSQPAAYVAQPATAAAYASQPAAYAAQATTPMAGSYGAQPVVQTQLNSYGAQASMGLSGSYGAQSAAAATGSYGAAAAYGAQPSATLAAPYRTQSSASLAASYAAQQHPQAAASYRGQPGNAYDGAGQPSAAYLSMSQGAVANANSTPPPYERTRLSPPRASYDDPYKKAVAMSKRYGSDRRLAELSDYRRLSESQLSFRRSPTKSSLDYRRLPDAHSDYARYSGSYNDYLRAAQMHSGYQRRM | 2 | 0 | 3 | 4 | – | – | – | –
